Results on 2 substances are retold here after paper PMC3827224.

This assay concerns the target rhodamine-labelled fibronectin from human plasma (human).

In the case of “F1 functional upstream domain (FUD) peptide of Streptococcus pyogenes F1 (domain or fragment)”, the decrease of rhodamine-fibronectin incorporation into the extracellular matrix of HDF fibroblasts (fluorescence plate assay), 500 nM bead-immobilized peptide, after 12 and 24 hours was 80%. As for “FnBPA-derived peptide containing fibronectin-binding repeats 1-11 (FnBR1-11) (domain or fragment)”, the figure is 90%.
